Experiment: yeast display, Sf9 membrane polyspecificity reagent, FACS + sequencing; frameworks hold sequencing errors
Procedure, shortened: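 Nanobodies came from a synthetic yeast display library in Saccharomyces cerevisiae BJ5465, induced with galactose for 36–48 hours and stained for 1 hour at 4 °C with 10% biotinylated, detergent-solubilized Sf9 membrane reagent. Cells were enriched on streptavidin microbeads and then FACS-sorted, with low and high (top ~1%) gates set on anti-HA fluorescence for expression and streptavidin fluorescence for reagent binding. Each polyreactivity label reflects the gate a clone came from. Genes were amplified by colony PCR, sequenced by MiSeq 2 × 250 and filtered by CDR length.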

Row | Sequence | polyreactivity (PSR sort gate)
1 | QDQLEESGGGLVQAGGSLRLSCAASGRIFFRNLMGAYRQPTGKERELVATITSGGRTYYADSVKGRFTISRDNAKNTVYLQMNSLKPVDTAVYYCATVYRPGGVYGYEYWGQGTQVTVSS | high polyreactivity
2 | QVQLVESVGGLVQAGGSLRLSCAASGFILAVYVLGWYRQAPGKERELVAAISWSGGSTYYADSLKGRFTISRDNAKNTVYFKMNRLKPEYTAVYSCNTVAKSPVKYDYWGQGTQVTVSS | high polyreactivity
3 | QVQLVESGGGLVQAGGSLRLSCAASGNIFVRYSKGWYRQAPGKERELVAVISSGGSTNYADSVKGRFTISRDNAKNTVYLQMNSLKPEDSAVYYCARKYYSQAISSRKYGYWGQGTQVTVSS | high polyreactivity
4 | QVQLVESGGGLVQAGGSLRLSCAASGSTFTDYDMGWYRPAPGKERELVAAISSGGSTYYADSVKGRFTISRDNAKNTVYLQMNSLKPEDTAVYYCAAVLGVWGGVGSEGDYWGQGTQVTVSS | low polyreactivity
5 | QVQLVESGGGLLQAGGSLRLSCAASGSIFRLNAMGWYRQAPGKERELVATINYSGDSTYYADSVKGRFTISRDNAKNTVYLQMNSLKPEDTAVYFCATDYGWYDYWGQGTQVTVSS | low polyreactivity
6 | QVQLVESGGGLVQAGGSLRLSCAASGSTFPDYAMGWYRQAPGKERELVAVITIRGGSTYYADSVKGRFTISRDNAKNTVYLQMNSLKPEDTAVYYCAATGQLQGWYDMYYWGQGTQVTVSS | low polyreactivity
7 | QVQLVESGGGLVHAGGRLRLSCTASGGIFRYYAMGWYRQAPGKERELVAGISRSGGSTHYADSVKGRFTISRDNAKNTVYLQMNSLKPEDTAVYYCAADTYFTKYDYWGQGTQVTVSS | high polyreactivity
8 | QVQLVESGGGLVQAGGSLRLSCAASGFIRYYAMGWYRNAHGKERELVAAITATGASTYYADSVKGRFTISRDNAKNTVYLQMNSLKPEDTAVYYCIVRLRISSGYWGQGTQVTVSS | high polyreactivity
9 | QVQLVESGGCLVQAGGSLRLSCAASGLIFGRNVMGWYRQAPGKERELVAAISWSGGRTYYADSVKGRFSISRDNAKNTVYLQMNSLKPEDTAVYYCNARYSRVWYGCDYWGQGTQVTVSS | high polyreactivity
10 | QVQLVESGGGLVQAGGSLRLSCAASGRIFDYYAMGWYRQAPGKERELVASISRSGGSTYYADSVKGRFTISRDNAKNTVYLQMNSLKPDDSAVYYCAASRGYYYGRVGYWGQGTQVTVSS | high polyreactivity
11 | QVQLVESGGCLVQAGGSLRLSCAASGNTLRTYGMGWYRQAPGKESEFVAAITYSGGSTYYADSVKGRFTISRDNAKNTVYLQMNSLKPEDTAVYYCAARYRSHYRRITPYDSWGQGTQVTVSS | high polyreactivity
12 | QVQLVESGGGLVQAGGSLRLSCAASGLTFKSYAMGWYRQAPGKERELVAAISWRGGRTYYADSVKGRFTISRDNAKNTVYLQMNSLKPEDTAVYYSNARSQQWWLSRYNYWGQGTQVTVSS | high polyreactivity
13 | QVQLVESGGGLVQAGGSLRISCAASGSTLVGKVMGWYRQAPGKERELVADITLSGGSTYYSDSVKGRFTISRDNAKNTVYLQMNSLKPEDTAVYYCNDVFFNYLLEYDYWGQGTQVTVSS | high polyreactivity
14 | QVQLVESGGGLVQAGGSLRLSCAASGRTFPYNAMGWYRQAPGKERELVAAISSGGSTNYADSVKGRFTITRDNAKKTVYLQRNSLKPEDTAVYYCAVTGWPRYTWYSYGYWGQGTQVTVSS | low polyreactivity
15 | QVQLVESGGGLVQAGGSLRLSCAASGYLRVNAMGWYRQAPGTERELVAAITGNGGRTYYADSVKGRFTISRDNAKNTVYLQMNSLKPEDTAVYYCNIAGSSRSWFGSYYWGQGTQVTVSS | high polyreactivity
16 | QVQLVESGGGLVQAGGSLRLSCAASGLIFRYYAMGWYSQAPGKEREFVAAISGPGASTYYADSVKGRFTISRDNAKNTVYLQMNSLKPEDTAVYYCNTLLTYGYDYWGQGTQVTVSS | high polyreactivity
17 | QVQLVESGGGLVQAGGSLRLSCAASGIIFRSYAMGWYRQAPGKERELVAAITSGGSTNYADSVKGRFTISRDNAKNTVYLQMHSLKPEDTAVYYCAARWPWYGKLRYYYWGQGTQVTVSS | high polyreactivity

Source: the nanobody polyreactivity screen of Harvey et al. (2022)
